According to patent US20260166145A1 (Memorial Sloan Kettering, published 2026):

Legend:
[1] = molecular target: T1, Human CD33-FC protein (R&D Systems) (human, UniProt P20138 18-259); assay: BLI (Octet RED96e): human CD33-FC captured on anti-hIgG Fc Capture biosensors, scFv in solution; monovalent scFv, not IgG
T1 construct: Bought reagent; also called purified CD33-FC; not shown: Fc part of the bought fusion; it is captured by anti-hIgG Fc biosensors

[2] = molecular target: T1, Human CD33-FC protein (R&D Systems); assay: competitive ELISA on coated CD33-FC: pre-incubation with increasing HuM195 antibody, then HuM195 scFv at 100 nM, detected with anti-human Fab-HRP; signal normalised to 0 nM HuM195 falls from about 95-100 to about 10 on the axis named Blocked (%)
[3] = molecular target: T1, Human CD33-FC protein (R&D Systems); assay: BLI (Octet RED96e) on captured human CD33-FC; reference is HuM195 scFv
Excerpt: (§1) Equilibrium dissociation constant (Kd) measurement with bio-layer interferometry (BLI) biosensor. Human CD33-FC protein (R&D Systems, Minneapolis, MN) was captured on Anti-hIgG Fc Capture (AHC) Biosensors (ForteBio, Fremont, CA) overnight and blocked with FC. […] The binding graphs were fitted to a Kd constant model.

[4] = molecular target: T1, Human CD33-FC protein (R&D Systems); assay: BLI (Octet RED96e): human CD33-FC captured on anti-hIgG Fc Capture biosensors, antibody in solution; full-length bivalent HuM195 IgG
Excerpt: as §1

T1 sequence (P20138 18-259 limits assumed): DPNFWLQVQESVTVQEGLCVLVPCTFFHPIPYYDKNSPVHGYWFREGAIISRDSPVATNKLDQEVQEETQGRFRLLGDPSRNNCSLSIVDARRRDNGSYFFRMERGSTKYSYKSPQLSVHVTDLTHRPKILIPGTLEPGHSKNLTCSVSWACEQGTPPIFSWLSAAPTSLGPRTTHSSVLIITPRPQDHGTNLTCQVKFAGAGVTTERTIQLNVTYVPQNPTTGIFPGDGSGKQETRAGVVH

B1: HuM195 single-chain variable fragment (scFv), purified, with C-terminal His-tag (scFv)
scFv: QVQLVQSGAEVKKPGSSVKVSCKASGYTFTDYNMHWVRQAPGQGLEWIGYIYPYNGGTGYNQKFKSKATITADESTNTAYMELSSLRSEDTAVYYCARGRPAMDYWGQGTLVTVSSGGGGSGGGGSGGGGSDIQMTQSPSSLSASVGDRVTITCRASESVDNYGISFMNWFQQKPGGAPKLLIYAASNQGSGVPSRFSGSGSGTDFTLTISSLQPDDFATYYCQQSKEVPWTFGQGTKVEIKHHHHHHHH
notes: Expressed from the pSF-CMV-Puro-IL2 secretion plasmid in FreeStyle 293 cells and purified on a Histrap column; Monomeric by size exclusion chromatography; also called HuM195 scFv; Hu195 scFv
Kd [1]: 1.81 nM

B2: Lintuzumab (HuM195) antibody (antibody, V domains shown)
VH: QVQLVQSGAEVKKPGSSVKVSCKASGYTFTDYNMHWVRQAPGQGLEWIGYIYPYNGGTGYNQKFKSKATITADESTNTAYMELSSLRSEDTAVYYCARGRPAMDYWGQGTLVTVSS
VL: DIQMTQSPSSLSASVGDRVTITCRASESVDNYGISFMNWFQQKPGGAPKLLIYAASNQGSGVPSRFSGSGSGTDFTLTISSLQPDDFATYYCQQSKEVPWTFGQGTKVEIK
notes: also called Hu195; Hu195 antibody
IC50 [2]: 0.716 nM | fold difference of Kd against HuM195 scFv [3]: ~30 fold | Kd [4]: 0.0627 nM
